Test results from patent US20140161821A1, “TREATMENT WITH ANTI-PCSK9 ANTIBODIES” (PFIZER INC., priority 2011, published 2014).

Columns and labels:
Assay type in all cases: in vivo
[1] = target: T1, PCSK9 (Rattus norvegicus, UniProt P59996); experiment: Dose-response of serum cholesterol and triglycerides in Sprague-Dawley rats, single IP dose
T1 construct: endogenous in cells; host or cells: live Sprague-Dawley rats (in vivo, serum PCSK9)
Description: The duration of the cholesterol repression was also dose dependent, ranging from 1 to 21 days.

[2] = system: PCSK9; experiment: LDL-C and HDL-C in cynomolgus monkeys after IV dosing
Description: One (1) mg/kg dosing reached a maximum effect of 71% reduction in LDL-C on day 5, and began to recover immediately thereafter, reaching pre-dose levels by day 14. Three (3) mg/kg dosing reached a maximum effect of 72% reduction in LDL-C by day 7, levels began to recover by day 13, and returned to baseline by day 22. Ten (10) mg/kg dosing maintained the 70% reduction in LDL-C levels until day 21 post-dosing, and animals fully recovered by day 31. […] HDL-C levels were not affected by L1L3 treatment in all dose groups.
These two additional doses again lowered LDL-C and kept LDL-C levels below 50% for 4 weeks. LDL-C levels returned to normal two weeks later.

[3] = PK study, single bolus i.v. injection in cynomolgus monkeys, total antibody concentration
[4] = target: T2, PCSK9 (Homo sapiens, UniProt Q8NBP7); experiment: Example 2 clinical study, single escalating IV doses: fasting lipids; conditions: for mean percentage change from baseline of fasting LDL-C: single IV 0.3 mg/kg
T2 construct: PCSK9 antagonist antibody that antagonizes circulating PCSK9; endogenous in cells; host or cells: human subjects in clinical trials (in vivo, circulating PCSK9)
T2 sequence (Q8NBP7 153-692): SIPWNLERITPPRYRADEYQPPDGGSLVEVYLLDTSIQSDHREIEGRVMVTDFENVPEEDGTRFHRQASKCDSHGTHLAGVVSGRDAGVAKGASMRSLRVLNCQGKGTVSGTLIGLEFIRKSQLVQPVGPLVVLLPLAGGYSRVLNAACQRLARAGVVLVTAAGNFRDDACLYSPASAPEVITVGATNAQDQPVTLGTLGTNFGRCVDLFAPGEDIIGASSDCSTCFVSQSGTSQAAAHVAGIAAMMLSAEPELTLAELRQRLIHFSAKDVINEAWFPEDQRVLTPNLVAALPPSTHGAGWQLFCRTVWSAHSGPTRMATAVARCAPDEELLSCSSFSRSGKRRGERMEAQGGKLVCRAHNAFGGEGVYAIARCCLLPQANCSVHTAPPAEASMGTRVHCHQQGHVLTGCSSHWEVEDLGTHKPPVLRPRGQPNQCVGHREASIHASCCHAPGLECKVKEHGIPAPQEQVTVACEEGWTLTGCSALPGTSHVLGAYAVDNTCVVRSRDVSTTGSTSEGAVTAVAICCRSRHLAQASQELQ
T2 sequence (Q8NBP7 31-152 partner limits assumed): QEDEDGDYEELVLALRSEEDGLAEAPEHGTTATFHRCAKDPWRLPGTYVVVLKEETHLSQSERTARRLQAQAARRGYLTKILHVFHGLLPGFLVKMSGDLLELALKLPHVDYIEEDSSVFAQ
Description: The study entailed a randomized, placebo-controlled, ascending, single dose study of L1L3. The subjects, investigator, and site personnel (except site personnel responsible for drug preparation) were blinded to treatment assignments, as was the CRO designee; while the Sponsor clinical research team was unblinded. The study was conducted in 6 planned cohorts of 8 subjects per cohort in an effort to seek a maximum tolerated dose or MTD (total of approximately 48 subjects). […] Doses were administered following an overnight fast as an intravenous infusion over 60 minutes. […] Infusions will be administered as a single infusion over 60 minutes.
Change in serum lipids (total cholesterol, LDL, HDL, Triglycerides, Non-HDL-C and Apoprotein B) were assessed.
Collection of fasting lipid profile was performed after at least a 10-hour fast (total cholesterol, LDL, HDL, Non-HDL Cholesterol, Apo B and triglycerides).

T1 sequence (P59996 152-691): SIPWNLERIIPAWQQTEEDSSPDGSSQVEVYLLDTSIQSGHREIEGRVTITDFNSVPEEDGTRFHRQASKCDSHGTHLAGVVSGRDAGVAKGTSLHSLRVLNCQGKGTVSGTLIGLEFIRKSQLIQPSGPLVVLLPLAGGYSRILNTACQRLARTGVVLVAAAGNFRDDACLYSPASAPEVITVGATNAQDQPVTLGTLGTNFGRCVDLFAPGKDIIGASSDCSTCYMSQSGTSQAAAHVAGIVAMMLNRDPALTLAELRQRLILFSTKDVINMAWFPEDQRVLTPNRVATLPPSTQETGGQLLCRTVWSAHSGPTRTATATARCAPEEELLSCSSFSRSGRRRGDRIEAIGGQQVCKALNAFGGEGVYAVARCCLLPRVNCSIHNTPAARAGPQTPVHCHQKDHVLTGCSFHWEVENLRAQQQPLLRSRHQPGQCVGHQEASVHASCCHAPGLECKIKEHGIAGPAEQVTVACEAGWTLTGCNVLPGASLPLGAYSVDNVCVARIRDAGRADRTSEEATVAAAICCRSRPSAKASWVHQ

B1: L1L3: humanized (<5% murine residues) monoclonal PCSK9 antagonist antibody that binds to secreted PCSK9; VH SEQ ID NO: 11, VL SEQ ID NO: 12 (antibody, V domains shown)
VH: QVQLVQSGAEVKKPGASVKVSCKASGYTFTSYYMHWVRQAPGQGLEWMGEISPFGGRTNYNEKFKSRVTMTRDTSTSTVYMELSSLRSEDTAVYYCARERPLYASDLWGQGTTVTVSS
VL: DIQMTQSPSSLSASVGDRVTITCRASQGISSALAWYQQKPGKAPKLLIYSASYRYTGVPSRFSGSGSGTDFTFTISSLQPEDIATYYCQQRYSLWRTFGQGTKLEIK
modifications: heavy chain variable region; light chain variable region
[1]; single IP 80 mg/kg
  Non-fasting serum triglyceride levels, maximum increase: approximately three
[1]; single IP 10 and 80 mg/kg, 48 hours post dosing
  Serum cholesterol reduction, maximum effect: 50%
[2]; single IV 0.1 mg/kg
  Day by which LDL-C recovered: ≤ 5 days
[2]; single IV 0.1 mg/kg, day 2
  LDL-C drop (transient): 50%
[2]; single IV 1 mg/kg
  Day by which LDL-C reached pre-dose levels: ≤ 14 days
[2]; single IV 1 mg/kg, day 5
  LDL-C reduction, maximum effect: 71%
[2]; single IV 3 mg/kg
  Day by which LDL-C returned to baseline: ≤ 22 days
[2]; single IV 3 mg/kg, by day 7
  LDL-C reduction, maximum effect: 72%
[2]; single IV 10 mg/kg
  Day by which animals fully recovered (LDL-C): ≤ 31 days
[2]; single IV 10 mg/kg, maintained until day 21 post-dosing
  LDL-C reduction: 70%
[2]; single IV 0.1, 1, 3, 10 mg/kg, all dose groups
  HDL-C levels: not affected
[2]; two additional IV doses of 3 mg/kg on study days 42 and 56
  Serum HDL-C levels: remained unchanged
[2]; two additional IV doses of 3 mg/kg on study days 42 and 56, for 4 weeks
  LDL-C levels: below 50%
[3]; single i.v. 0.1 mg/kg
  Estimated β-phase half-life: 16.1 h
[3]; single i.v. 1.0 mg/kg
  Estimated β-phase half-life: 45.8 h
[3]; single i.v. 3.0 mg/kg
  Estimated β-phase half-life: 55.9 h
[3]; single i.v. 10.0 mg/kg
  Estimated β-phase half-life: 83.8 h
[3]; single i.v. 100.0 mg/kg
  Estimated β-phase half-life: 126 h
[4]; 0.3 mg/kg, by day 7
  Fasting apolipoprotein B (apo B), % below baseline: about 25%
[4]; 1 mg/kg, by day 14
  Fasting apolipoprotein B (apo B), % below baseline: about 40%
[4]; 3 mg/kg, by day 14
  Fasting apolipoprotein B (apo B), % below baseline: about 40%
[4]; 3 mg/kg, by day 28
  Fasting apolipoprotein B (apo B), % below baseline: about 50%
[4]; 6 mg/kg or 12 mg/kg, by day 14 post-dosing
  Fasting LDL-C levels: about 55 mg/dL
[4]; 6 mg/kg, by day 14
  Fasting apolipoprotein B (apo B), % below baseline: about 40%
[4]; 6 mg/kg, by day 21
  Fasting apolipoprotein B (apo B), % below baseline: about 50%
[4]; 6 mg/kg, generally, remainder of the study
  Fasting apolipoprotein B (apo B), % below baseline: > 30%
[4]; 18 mg/kg, FIG. 2
  LDL-C percentage change from baseline (lowering): up to 83%
[4]; 18 mg/kg, by day 14 post-dosing
  Fasting LDL-C levels: about 20 mg/dL
[4]; 1, 3, 6, 12, or 18 mg/kg, by day 14 post-dosing
  Fasting LDL-C levels: ≤ 70 mg/dL
[4]; 12 or 18 mg/kg, by day 14, baseline about 119 mg/dL
  Fasting apolipoprotein B (apo B), % below baseline: about 50%
[4]; 12 or 18 mg/kg, remainder of the study after day 14
  Fasting apolipoprotein B (apo B), % below baseline: ≥ 50%
[4]; all dosage groups
  Earliest day LDL-C lowering effects were seen: 3 days
[4]; in general, all dosage groups
  Day of maximum percentage LDL-C lowering: Day 15 or Day 22
[4]; single 0.3 mg/kg
  Duration of maximum LDL-C lowering effect: 7 days
[4]; single 0.3 mg/kg, by about day 9
  Fasting total cholesterol (TC), % reduced: about 25%
[4]; single 0.3 mg/kg, day 7 post-dosing
  Fasting LDL-C levels: about 85 mg/dL
[4]; single 0.3 mg/kg, until about 10 days post-dosing
  Fasting LDL-C levels: below 100 mg/dL
[4]; single 1.0 mg/kg
  Duration of maximum LDL-C lowering effect: 14 days
[4]; single 1 mg/kg, by about day 15
  Fasting total cholesterol (TC), % below baseline: about 36%
[4]; single 1 mg/kg, day 14 post-dosing
  Fasting LDL-C levels: about 65 mg/dL
[4]; single 1 mg/kg, until about 21 days post-dosing
  Fasting LDL-C levels: below 100 mg/dL
[4]; single 3.0 mg/kg
  Duration of maximum LDL-C lowering effect: up to 4 weeks
[4]; single 3 mg/kg, by about day 9
  Fasting total cholesterol (TC), % below baseline: about 30%
[4]; single 3 mg/kg, by about day 22
  Fasting total cholesterol (TC), % below baseline: about 40%
[4]; single 3 mg/kg, day 14 post-dosing
  Fasting LDL-C levels: about 70 mg/dL
[4]; single 3 mg/kg, day 21 post-dosing
  Fasting LDL-C levels: about 60 mg/dL
[4]; single 3 mg/kg, maintained up to 29 days post administration
  LDL-C levels, % below baseline: > 60%
[4]; single 3 mg/kg, maintained up to 50 days post administration
  LDL-C levels, % below baseline: > 20%
[4]; single 3 mg/kg, until about 36 days post-dosing
  Fasting LDL-C levels: below 100 mg/dL
[4]; single 6 mg/kg or 12 mg/kg, maintained up to 43 days post administration
  LDL-C levels, % below baseline: > 60%
[4]; single 6 mg/kg, 12 mg/kg, and 18 mg/kg
  Duration of maximum LDL-C lowering effect: more than 6 weeks
[4]; single 6 mg/kg, by about day 9 until about day 52 post-dosing
  Fasting total cholesterol (TC), % below baseline: ≥ 30%
[4]; single 6 mg/kg, by day 30 post-dosing
  Fasting total cholesterol (TC), % below baseline, in a number of subjects: > 50%
[4]; single 6 mg/kg, for about 42 days post-dosing
  Fasting LDL-C levels: below 50 mg/dL
[4]; single 6 mg/kg, until at least about 57 days post-dosing
  Fasting LDL-C levels: below 100 mg/dL
[4]; single 12 mg/kg, until at least about 57 days post-dosing (end of study)
  Fasting LDL-C levels: ≤ 60 mg/dL
[4]; single 18 mg/kg, maintained at least up to 57 days post administration
  LDL-C levels, % below baseline: > 65%
[4]; single 18 mg/kg, until at least about 57 days post-dosing
  Fasting LDL-C levels: below 50 mg/dL
[4]; single 12 or 18 mg/kg, by about day 9, lasting at least to day 57, baseline about 230 mg/dL
  Fasting total cholesterol (TC), % below baseline: ≥ 30%
[4]; single 12 or 18 mg/kg, by day 15 post-dosing
  Fasting total cholesterol (TC), % below baseline, in a number of subjects: > 50%
[4]; visit day 1
  mean percentage change from baseline of fasting LDL-C: 0.000%
[4]; visit day 2
  mean percentage change from baseline of fasting LDL-C: −15.8%
